Laboratory results as given in publication PMC3154745.

Molecular target: Full length mammalian HP1β (human or mouse (sequences identical)) (UniProt P83916)
Assay: AUC

Chain of Full length mammalian HP1β, P83916 1-185 (natural protein; other documents disagree on this pair) (P83916 whole entry): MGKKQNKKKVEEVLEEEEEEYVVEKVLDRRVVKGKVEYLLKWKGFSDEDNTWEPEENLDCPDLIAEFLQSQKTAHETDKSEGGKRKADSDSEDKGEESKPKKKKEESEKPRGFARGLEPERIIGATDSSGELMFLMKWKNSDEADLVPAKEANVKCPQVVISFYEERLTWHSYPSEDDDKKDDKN

## Full length mammalian HP1β, P83916 1-185 (natural protein; other documents disagree on this pair)
  Kd: 500 nM
